Results as given in PMC6411926, “Engagement of DNA and H3K27me3 by the CBX8 chromodomain drives chromatin association” (Nucleic Acids Research, 2018).
Blank lines part the entries; values can stand above or below the molecule they belong to. Ends that are not written are not given here. trimethyl = trimethyl-lysine

Assays:
[1] = target: histone H3K27me3 peptide (Homo sapiens) (UniProt P68431); conditions: cited from earlier work
[2] = target: T1, CBX8 chromodomain (residues 8-61) (UniProt Q9HC52 8-61); assay: NMR titration; 1H-15N HSQC; histone peptide added to 15N-CD pre-bound to an 11 bp DNA (CD:DNA 1:1); conditions: both partners purified
T1 construct: CBX8 chromodomain, residues 8-61; Uniformly 15N-labelled for the NMR titrations; The methods name two chromodomain constructs (Addgene 62514 and GST-CBX8 8-61 in pGSTag); the purification that is described is that of the GST fusion cleaved with TEV; also called CD; CBX8 CD; source: E. coli BL21 (DE3), purified (glutathione agarose, TEV cleavage, cation exchange, Superdex 75)
T1 sequence (looked up): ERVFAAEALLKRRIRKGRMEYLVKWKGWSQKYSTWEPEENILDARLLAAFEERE

[3] = target: T1, CBX8 chromodomain (residues 8-61); assay: NMR titration; 1H-15N HSQC of 0.05-0.10 mM 15N-CBX8 CD with increasing molar ratios of unlabelled histone peptide; 25 °C; 100 mM NaCl, 40 mM phosphate pH 6.8; CSPs fit to a single-site model with ligand depletion, global Kd as the average over perturbed resonances; conditions: both partners purified
CBX8 chromodomain (CD) = target: T2, CBX8 chromodomain (CD) (UniProt Q9HC52 8-61); assay: NMR titration (1H-15N HSQC); authors' estimate (likely); saturation at ~1:1, curved CSPs; EMSA: 25 mM phosphate pH 6.8, 25 mM NaCl, 1 mM EDTA, 1 mM DTT, 15 min on ice, 6% gel in 0.4x TBE; NMR: 40 mM phosphate pH 6.8, 100 mM NaCl, 25 C; conditions: protein: recombinant; tags: GST removed by TEV; 15N-labelled for NMR; blunt
T2 sequence: T1 sequence (looked up)

Molecule: CBX8 chromodomain (from UniProt Q9HC52)
- Kd [1]: > 500 µM

- Kd [2]: 200 µM
- Kd [3]: 700 µM
Molecule: KAARK(trimethyl)SAPATGG [H3K27me3 (23-34) histone peptide]

B1: 11 bp DNA (dsDNA)
DNA 1: GCGTTTAAGCG
DNA 2: CGCTTAAACGC
- Kd (CBX8 chromodomain (CD)): < 10 µM
